{"source": "paper PMC9016069", "about": "“Inosine triphosphate pyrophosphatase from Trypanosoma brucei cleanses cytosolic pools from deaminated nucleotides” (Scientific Reports, 2022)", "molecules": {"B1": {"name": "TbITPA (Trypanosoma brucei brucei TREU927) (protein)", "chain": "MTDASKTTKSVENANIPTLTFVTGNAGKLREVQACLGGYVTTESVKLDLPEIQASSVSRVSREKALLAYERLKKPVLVEDTGLSFEALGGMPGPYVRWFLDAVGPIGLAKMLNGFESRSAQVDCVFTYCASPGEVLQFIGSSRGSISMVPRGEGGFGFDTIFMPDDGNGQTFAEMSASTKNTISHRARALVEVRKHFENSK", "notes": "homodimer 48 kDa by gel filtration"}}, "assay_in_all_cases": "HPLC (MonoQ) product analysis, fit to substrate inhibition model", "key": {"TbITPA": {"molecular_target": "T1, TbITPA (Trypanosoma brucei, UniProt Q389X7)", "T1 construct": "gene Tb10.6k15.0290; homodimer 48 kDa by gel filtration", "T1 sequence (Q389X7 87-287)": "B1 chain", "assay_type": "biochemical", "details": "substrate inhibition constant; 5 mM MgCl2, 20 mM Tris-HCl pH 7.5, 0.1 mg/mL BSA, 1 mM DTT, 25 °C", "text": "HPLC (MonoQ) product analysis, fit to substrate inhibition model on TbITPA"}, "[1]": {"substrate": "NC(=O)c1ncn([C@@H]2O[C@H](CO[P@@](=O)(O)O[P@](=O)(O)OP(=O)(O)O)[C@@H](O)[C@H]2O)n1", "assay_type": "biochemical, Trypanosoma brucei", "details": "5 mM MgCl2, 20 mM Tris-HCl pH 7.5, 0.1 mg/mL BSA, 1 mM DTT, 25 °C"}, "[2]": {"substrate": "O=P(O)(O)OP(=O)(O)OP(=O)(O)OC[C@H]1O[C@@H](n2cnc3c(O)ncnc32)[C@H](O)[C@@H]1O", "assay_type": "biochemical, Trypanosoma brucei", "details": "5 mM MgCl2, 20 mM Tris-HCl pH 7.5, 0.1 mg/mL BSA, 1 mM DTT, 25 °C"}, "[3]": {"substrate": "O=c1[nH]c(=O)c2ncn([C@@H]3O[C@H](COP(=O)(O)OP(=O)(O)OP(=O)(O)O)[C@@H](O)[C@H]3O)c2[nH]1", "assay_type": "biochemical, Trypanosoma brucei", "details": "5 mM MgCl2, 20 mM Tris-HCl pH 7.5, 0.1 mg/mL BSA, 1 mM DTT, 25 °C"}, "[4]": {"substrate": "O=c1[nH]cnc2c1ncn2[C@H]1C[C@H](O)[C@@H](COP(=O)(O)OP(=O)(O)OP(=O)(O)O)O1", "assay_type": "biochemical, Trypanosoma brucei", "details": "5 mM MgCl2, 20 mM Tris-HCl pH 7.5, 0.1 mg/mL BSA, 1 mM DTT, 25 °C"}}, "data": [{"molecule": "O=c1[nH]c(=O)c2ncn([C@@H]3O[C@H](COP(=O)(O)OP(=O)(O)OP(=O)(O)O)[C@@H](O)[C@H]3O)c2[nH]1", "note": "[XTP]", "values": [{"measurement": "Ki (μM)^a", "setting": "TbITPA", "result": "951 ± 220", "unit": "µM"}]}, {"molecule": "O=c1[nH]cnc2c1ncn2[C@@H]1O[C@H](COP(=O)(O)OP(=O)(O)OP(=O)(O)O)[C@@H](O)[C@H]1O", "note": "[ITP]", "values": [{"measurement": "Ki (μM)^a", "setting": "TbITPA", "result": "824 ± 275", "unit": "µM"}]}, {"molecule": "O=c1[nH]cnc2c1ncn2[C@H]1C[C@H](O)[C@@H](COP(=O)(O)OP(=O)(O)OP(=O)(O)O)O1", "note": "[dITP]", "values": [{"measurement": "Ki (μM)^a", "setting": "TbITPA", "result": "98 ± 42", "unit": "µM"}]}, {"molecule": "B1", "values": [{"measurement": "Km", "setting": "[1]", "result": "75 ± 24", "unit": "µM"}, {"measurement": "kcat", "setting": "[1]", "result": "100 ± 14", "unit": "s⁻¹"}, {"measurement": "Km", "setting": "[2]", "result": "17 ± 3", "unit": "µM"}, {"measurement": "kcat", "setting": "[2]", "result": "59 ± 5", "unit": "s⁻¹"}, {"measurement": "kcat/Km", "setting": "[2]", "result": "3.5e+06", "unit": "M⁻¹ s⁻¹"}, {"measurement": "Km", "setting": "[3]", "result": "27 ± 4", "unit": "µM"}, {"measurement": "kcat", "setting": "[3]", "result": "37 ± 2", "unit": "s⁻¹"}, {"measurement": "kcat/Km", "setting": "[3]", "result": "1.4e+06", "unit": "M⁻¹ s⁻¹"}, {"measurement": "Km", "setting": "[4]", "result": "44 ± 18", "unit": "µM"}, {"measurement": "kcat", "setting": "[4]", "result": "280 ± 74", "unit": "s⁻¹"}, {"measurement": "kcat/Km", "setting": "[4]", "result": "6.4e+06", "unit": "M⁻¹ s⁻¹"}]}]}
